From patent US20040138122A1

Legend:
Assay in all cases: cell-based or functional assay
[1] = target: zcyto21 (human IL-29) (human) (UniProt Q8IU54)
[2] = target: T1, zcyto24 (mouse IL-28A) (mouse) (UniProt Q4VK74)
T1 sequence: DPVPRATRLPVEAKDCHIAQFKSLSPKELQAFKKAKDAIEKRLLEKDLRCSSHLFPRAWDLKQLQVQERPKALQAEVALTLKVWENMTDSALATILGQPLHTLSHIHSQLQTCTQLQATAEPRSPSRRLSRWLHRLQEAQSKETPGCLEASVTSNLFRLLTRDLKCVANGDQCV

[3] = target: T2, zcyto20 (human IL-28A) (human) (UniProt Q8IZJ0)
T2 sequence: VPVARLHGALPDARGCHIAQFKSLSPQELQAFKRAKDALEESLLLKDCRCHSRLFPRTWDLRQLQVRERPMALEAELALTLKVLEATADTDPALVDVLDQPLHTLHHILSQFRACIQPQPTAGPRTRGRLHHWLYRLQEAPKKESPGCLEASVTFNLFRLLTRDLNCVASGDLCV

Chain of zcyto21 (human IL-29) (human) (Q8IU54 20-200): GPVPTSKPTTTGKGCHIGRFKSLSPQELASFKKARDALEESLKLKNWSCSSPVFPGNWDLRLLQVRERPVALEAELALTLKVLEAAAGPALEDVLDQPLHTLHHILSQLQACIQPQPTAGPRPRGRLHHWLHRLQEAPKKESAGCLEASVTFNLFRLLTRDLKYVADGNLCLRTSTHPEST

B1: human zcytor19-Fc homodimer (Fc fusion, not shown: a dimerising Fc or GST)
chain: RPRLAPPQNVTLLSQNFSVYLTWLPGLGNPQDVTYFVAYQSSPTRRRWREVEECAGTKELLCSMMCLKKQDLYNKFKGRVRTVSPSSKSPWVESEYLDYLFEVEPAPPVLVLTQTEEILSANATYQLPPCMPPLDLKYEVAFWKEGAGNKTLFPVTPHGQPVQITLQPAASEHHCLSARTIYTFSVPKYSKFSKPTCFLLEVPEAN
- Percent Inhibition of Ligand-induced Interferon Stimulated Response Element (ISRE) Signaling by Soluble Receptors [1]: 45%
- Percent Inhibition of Ligand-induced Interferon Stimulated Response Element (ISRE) Signaling by Soluble Receptors [2]: 90%
- Percent Inhibition of Ligand-induced Interferon Stimulated Response Element (ISRE) Signaling by Soluble Receptors [3]: 92%
